Measured values as given in patent US20230078601A1 (CLEVELAND CLINIC FOUNDATION, published 2023).

Experiments:
[1] = target: T1, mouse AMHR2 (in lysate of a normal young C57BL/6 female mouse ovary) (mouse, UniProt Q8K592 16-568, limits assumed); experiment: Western blot of mouse ovary lysate
T1 construct: Denatured ovary lysate on a Western blot; also called mouse AMHR2-ED
T1 sequence (looked up): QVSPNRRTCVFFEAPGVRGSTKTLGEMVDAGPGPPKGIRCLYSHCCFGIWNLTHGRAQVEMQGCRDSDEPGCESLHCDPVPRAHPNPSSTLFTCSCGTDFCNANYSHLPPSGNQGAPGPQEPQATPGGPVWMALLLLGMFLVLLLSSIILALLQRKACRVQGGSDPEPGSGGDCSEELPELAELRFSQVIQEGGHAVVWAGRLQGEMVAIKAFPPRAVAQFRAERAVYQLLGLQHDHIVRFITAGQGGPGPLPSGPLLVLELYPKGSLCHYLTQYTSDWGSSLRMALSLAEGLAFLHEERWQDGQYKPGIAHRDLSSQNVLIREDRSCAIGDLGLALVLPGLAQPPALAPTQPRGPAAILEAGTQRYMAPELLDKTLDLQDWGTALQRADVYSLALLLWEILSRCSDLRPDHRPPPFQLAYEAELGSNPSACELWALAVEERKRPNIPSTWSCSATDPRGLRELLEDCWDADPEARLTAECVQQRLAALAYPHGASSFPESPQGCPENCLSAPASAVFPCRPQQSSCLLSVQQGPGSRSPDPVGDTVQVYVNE
Description: The suspension was centrifuged to remove debris, the lysates were washed in PBS, and 25 μg of protein from each lysate was loaded into each lane of denaturing SDS-PAGE gels (Bio-Rad). Gels were transferred onto polyvinylidene difluoride (PVDF) membranes (Bio-Rad) and treated with the 4D12G1 mAb at 0.001 μg/ml as primary antibody. In FIG. 2D, a commercially available AMHR2-ED mAb (#sc-377413; Santa Cruz Biotechnology, Dallas, Tex.) at 1.0 μg/ml was used instead of the 4D12G1 mAb as the primary antibody for detecting AMHR2-ED. Western blots of lysates were used to detect capase-3-mediated cleavage of poly (ADP-ribose) polymerase-1 (PARP-1) in AMHR2-OVCAR8 cells treated with increasing concentrations of 4D12G1 mAb (1.0-10 μg/ml) by using a primary rabbit antibody for detection of the intact 116 kDa PARP-1 and its 89 kDa cleaved variant associated with apoptosis (Cell Signaling Technology, Danvers, Mass.). Secondary detection antibodies included treatment with a 1:10,000 dilution of an HRP-conjugated rabbit anti-mouse IgG (MilliporeSigma) or a 1:5,000 dilution of an HRP-conjugated goat anti-rabbit antibody (MilliporeSigma). […]

12-27 = target: T2, 12-27; experiment: direct ELISA on plated overlapping 16-mer peptides of AMHR2-ED, 4D12G1 as primary antibody
T2 construct: overlapping 16-mer of human AMHR2-ED; also called p12-27; AMHR2-ED 12-27 16-mer peptide
T2 peptide: APGVRGSTKTLGELLD
Description: (§1) Competitive ELISAs were used to determine the AMHR2-ED sequence recognized by the 4D12G1 mAb. A set of overlapping 16-mer peptides spanning the entire 132 amino acid sequence of human AMHR2-ED was generated. Each peptide shifted by one amino acid and all cysteine residues were replaced by serine to avoid disulfide bond formation (Thermo Fisher). Individual 16-mer peptides were plated in solid phase in microtiter wells, increasing concentrations of each 16-mer peptide were incubated with the 4D12G1 mAb in liquid phase, and ELISAs were performed as described above. The binding site of the 4D12G1 mAb was confirmed by competitive ELISA using overlapping peptides containing alanine substitutions for each amino acid spanning the immunoreactive region of AMEIR2-ED. The substituted peptides were used in liquid phase with the 4D12G1 mAb to determine binding inhibition to rhAMHR2-ED in solid phase. The AMHR2-ED binding sequence of the 4D12G1 mAb and the critical AMHR2-ED residues for such binding were confirmed by SPOT peptide arrays. Peptides spanning the AMHR2-ED 9-40 immunoreactive region and ranging from 4-16-mers in length were synthesized >90% pure on cellulose membranes (JPT Peptide Technologies, Berlin, Germany), treated overnight with blocking buffer (Thermo Fisher), followed by treatment with the 4D12G1 mAb at 1.0 μg/ml for 3 hours at room temperature, followed by three washes with PBS containing 0.01% Tween-20 (Bio-Rad). The membranes were then treated with a 1:10,000 dilution of an HRP-conjugated rabbit anti-mouse IgG (MilliporeSigma) followed by three washes with PBS containing 0.01% Tween-20 (Bio-Rad). Bound antibody was detected using the HyGLO chemiluminescence system (Thomas Scientific).
(§2) An overlapping series of 16-mer peptides spanning the entire 132 amino acid sequence of human AMHR2-ED (FIG. 3A) with moving single amino acid shifts were plated for direct ELISA testing using the 4D12G1 mAb as primary antibody. […] To determine amino acids recognized by the 4D12G1 mAb, an overlapping series of peptides spanning the immunoreactive sequence comprising AMHR2-ED 13-30 were synthesized with alanine substitutions at each N-terminal residue or with glycine substitutions for any native N-terminal alanine.

13-28 = target: T3, 13-28; experiment: as above
T3 construct: overlapping 16-mer of human AMHR2-ED; also called p13-28; AMHR2-ED 13-28 16-mer peptide
T3 peptide: PGVRGSTKTLGELLDT
Description: as §1, §2

15-30 = target: T4, 15-30; experiment: as above
T4 construct: overlapping 16-mer of human AMHR2-ED; also called p15-30; AMHR2-ED 15-30 16-mer peptide
T4 peptide: VRGSTKTLGELLDTGT
Description: as §1, §2

17-32 = target: T5, 17-32; experiment: as above
T5 construct: overlapping 16-mer of human AMHR2-ED; also called p17-32; AMHR2-ED 17-32 16-mer peptide
T5 peptide: GSTKTLGELLDTGTEL
Description: as §1, §2

Measured: binding result

B1: 4D12G1 mAb (antibody, IgG1, V domains shown)
VH: DVKLVESGGGLVKLGGSLKLSCAASGFTFSRYFMSWVRQTPEKRLELVAAINSDGGRTYYPDTVKGRFTISRDNAKNTLYLQMSSLKSEDTALYYCTRHIYSYYEDYFDYWGQGTTLTVSS
VL: DVVMTQTPLSLPVSLGDQASISCRSSQSLVHSNGNTYLHWYLQKPGQSPKLLIYKVSKRFSGVPDRFSGSGSGTDFTLKISRVEAEDLGVYFCSQSTHVYTFGGGTKLEIK
notes: also called 4D12G1 IgG1 mAb
binds: [1] | 12-27 | 13-28 | 15-30 | 17-32
